2 molecules from US20090275511A1 (IPSEN PHARMA S A S, published 2009) can be followed below.

The test deals with T1, human GH secretagogue receptor (human, UniProt Q92847 1-366).
T1 construct: whole, on cells; the Ca2+ assay used the whole cells; also called hGHS-R; ghrelin receptor
The experiment in a line: competition with 0.05 nM (125I)ghrelin on membranes of CHO-K1 cells expressing hGHS-R, filtration. How it is done: The homogenates were washed twice by centrifugation (39,000 g/10 minutes) and the final pellets were resuspended in about 50 mM Tris-HCl containing 2.5 mM MgCl₂ and 0.1% bovine serum albumin (BSA). For the selected assay, aliquots of approximately 0.4 ml were incubated with 0.05 nM (¹²⁵I)ghrelin (˜2000 Ci/mmol; Perkin Elmer Life Sciences®, Boston, Mass., U.S.A.) with and without 0.05 ml of unlabeled competing test peptide.

Numbered stars: 1 amine (or outer) side, 2 acyl side, 3 side chain; on linkers, the order of the positions; unused ones are H or OH. Square brackets hold non-standard residues; d marks the D form. Glu(NH-hexyl) = N5-hexyl-L-glutamine (glutamic acid gamma-hexylamide), CCCCCCNC(=O)CC[C@H](N[*:1])C(=O)[*:2]; 1‑Apc = not defined here; Aib = CC(C)(N)C(=O)O

By Ki is commonly meant the equilibrium dissociation constant of an inhibitor or competing ligand from its target. Low values mean a stronger hold on the target, high ones a looser hold on the target.

T1 sequence (Q92847 whole entry): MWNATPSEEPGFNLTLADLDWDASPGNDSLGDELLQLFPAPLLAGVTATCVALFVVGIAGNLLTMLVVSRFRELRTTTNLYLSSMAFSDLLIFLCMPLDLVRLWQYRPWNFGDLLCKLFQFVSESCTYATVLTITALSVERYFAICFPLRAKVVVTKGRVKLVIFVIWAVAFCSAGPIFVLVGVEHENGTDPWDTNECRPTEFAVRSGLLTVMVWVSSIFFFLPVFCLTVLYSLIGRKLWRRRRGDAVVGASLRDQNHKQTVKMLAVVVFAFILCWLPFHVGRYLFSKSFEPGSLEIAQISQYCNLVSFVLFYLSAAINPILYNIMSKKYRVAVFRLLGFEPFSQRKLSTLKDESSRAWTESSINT

B1: (Ac-Inp^1, Aib^2,10, Glu(NH-hexyl)^3)hGhrelin(1-28)-NH2 (peptide)
peptide: XXEFLSPEHXRVQQRKESKKPPAKLQPR
HELM: PEPTIDE1{[ac].[O=C(C1CCN([*:1])CC1)[*:2]].[Aib].[CCCCCCNC(=O)CC[C@H](N[*:1])C(=O)[*:2]].F.L.S.P.E.H.[Aib].R.V.Q.Q.R.K.E.S.K.K.P.P.A.K.L.Q.P.R.[am]}$$$$V2.0
SMILES: CCCCCCNC(=O)CC[C@H](NC(=O)C(C)(C)NC(=O)C1CCN(C(C)=O)CC1)C(=O)N[C@@H](Cc1ccccc1)C(=O)N[C@@H](CC(C)C)C(=O)N[C@@H](CO)C(=O)N1CCC[C@H]1C(=O)N[C@@H](CCC(=O)O)C(=O)N[C@@H](Cc1c[nH]cn1)C(=O)NC(C)(C)C(=O)N[C@@H](CCCNC(=N)N)C(=O)N[C@H](C(=O)N[C@@H](CCC(N)=O)C(=O)N[C@@H](CCC(N)=O)C(=O)N[C@@H](CCCNC(=N)N)C(=O)N[C@@H](CCCCN)C(=O)N[C@@H](CCC(=O)O)C(=O)N[C@@H](CO)C(=O)N[C@@H](CCCCN)C(=O)N[C@@H](CCCCN)C(=O)N1CCC[C@H]1C(=O)N1CCC[C@H]1C(=O)N[C@@H](C)C(=O)N[C@@H](CCCCN)C(=O)N[C@@H](CC(C)C)C(=O)N[C@@H](CCC(N)=O)C(=O)N1CCC[C@H]1C(=O)N[C@@H](CCCNC(=N)N)C(N)=O)C(C)C
notes: Synthetic analog of human ghrelin(1-28)
Molecule B1 registered a Ki of 370 nM.

Take Ac-[1‑Apc][Aib][Glu(NH-hexyl)]FLSPEH[Aib]RVQQRKESKKPPAKLQPR-NH2 (reading uncertain, Synthetic analog of human ghrelin(1-28)) [(Ac-1-Apc^1, Aib^2,10, Glu(NH-hexyl)^3)hGhrelin(1-28)-NH2]: the Ki came out at 40 nM.
